From the Human Domainome abundance scans (Beltran et al. 2025)
± gives the uncertainty stated by the source.

B1: REST corepressor 3, residues 87 to 134; numbered along this chain, Q9P2K3 (parent)
chain: DEWTVEDKVLFEQAFSFHGKSFHRIQQMLPDKTIASLVKYYYSWKKTR

Variants of: B1
Experiment: abundance fitness (aPCA) (normalised: wild type 0, dead -1); higher = more abundant; growth selection in yeast, the domain comes from the species named
Conditions: Homo sapiens

Variant	abundance fitness
K45F	-0.493 ± 0.34
E2C	-0.116 ± 0.33
Q26K	0.249 ± 0.12
A35D	-0.391 ± 0.28
I34E	-0.455 ± 0.14
T33Q	-0.658 ± 0.23
V9H	-0.237 ± 0.2
K46P	-0.782 ± 0.26
K32E	-0.836 ± 0.15
I34Q	-0.768 ± 0.1
M28R	-0.618 ± 0.2
D31W	-0.539 ± 0.23
E2H	-0.265 ± 0.45
K8L	-0.779 ± 0.38
T33S	-0.385 ± 0.14
E2A	-0.797 ± 0.33
T47V	-0.752 ± 0.32
V9A	-0.216 ± 0.14
F11L	-1.14 ± 0.36
V9G	-0.17 ± 0.13
F11V	-0.812 ± 0.2
S21Q	0.303 ± 0.15
K46V	-0.399 ± 0.12
Q13H	-0.234 ± 0.4

Variant	abundance fitness
S43G	-0.154 ± 0.055
V38F	-0.663 ± 0.14
K20P	-0.704 ± 0.47
E12R	-1.01 ± 0.48
K39D	-0.575 ± 0.45
Q13F	-0.614 ± 0.22
F22R	-1.07 ± 0.27
K39A	-0.481 ± 0.18
S21G	-1.12 ± 0.42
A14S	-0.993 ± 0.36
V5C	-0.478 ± 0.37
G19D	-0.487 ± 0.45
H18V	-0.974 ± 0.44
K46S	-0.467 ± 0.12
A35L	-0.113 ± 0.061
F15V	-0.392 ± 0.12
F17K	0.207 ± 0.14
A14I	-0.655 ± 0.44
T4S	-0.198 ± 0.14
P30Q	-0.716 ± 0.36
Q26M	-0.438 ± 0.2
Q26G	-0.757 ± 0.24
I25K	-0.54 ± 0.38
E2V	-0.859 ± 0.3

Variant	abundance fitness
K20W	-0.551 ± 0.33
S21A	0.221 ± 0.12
H23K	0.381 ± 0.2
F11C	-0.265 ± 0.26
E12A	-0.582 ± 0.29
K46T	-0.756 ± 0.2
V38D	-0.612 ± 0.25
E6L	-0.614 ± 0.2
L10V	-0.051 ± 0.087
P30E	-0.563 ± 0.25
V5M	-0.612 ± 0.31
T4R	-0.634 ± 0.25
Q13W	-0.742 ± 0.23
F11S	-0.736 ± 0.27
V9D	-0.258 ± 0.2
Q13R	-0.46 ± 0.16
S36T	-0.347 ± 0.2
K32P	-0.742 ± 0.095
W3G	-0.912 ± 0.33
E2K	0.3 ± 0.17
Y42E	0.203 ± 0.084
D7V	-0.687 ± 0.21
E2S	-0.441 ± 0.3
T33H	-0.781 ± 0.36

Variant	abundance fitness
A35M	-0.203 ± 0.11
S43V	-0.076 ± 0.046
E2R	-0.107 ± 0.16
V38I	0.279 ± 0.084
E2Y	-0.208 ± 0.32
K32H	-0.45 ± 0.069
Q27A	0.069 ± 0.14
K46A	-0.053 ± 0.074
K45R	-0.087 ± 0.095
I25G	-0.903 ± 0.3
W44D	0.738 ± 0.36
Y40E	-0.318 ± 0.34
L37K	-0.714 ± 0.37
L37S	-0.773 ± 0.25
F22A	-0.692 ± 0.23
K45S	-0.143 ± 0.12
L10S	-0.763 ± 0.14
H23Y	-0.702 ± 0.47
T33D	-0.354 ± 0.28
S43L	-0.49 ± 0.16
I25R	-0.975 ± 0.29
S16E	0.339 ± 0.13
V38L	-0.123 ± 0.065
H18L	-0.731 ± 0.27

Variant	abundance fitness
V5K	0.208 ± 0.13
T47S	-0.463 ± 0.21
V38C	-0.647 ± 0.17
D7S	-0.611 ± 0.17
H18Y	-0.05 ± 0.19
M28Q	-0.429 ± 0.48
F17E	0.376 ± 0.13
L29C	-0.795 ± 0.46
V5R	-0.163 ± 0.11
W3M	-0.629 ± 0.39
M28E	-0.616 ± 0.3
K32R	-0.473 ± 0.062
Q13A	-0.389 ± 0.18
T4N	-0.257 ± 0.3
E12D	-0.07 ± 0.23
D31A	-0.429 ± 0.13
E6T	-0.323 ± 0.2
F17W	-0.61 ± 0.28
E6R	-0.273 ± 0.11
H18S	-0.706 ± 0.35
V5T	-0.436 ± 0.27
D31P	-0.621 ± 0.33
I34H	-0.73 ± 0.37
G19S	-0.487 ± 0.3

Variant	abundance fitness
I25V	-0.74 ± 0.2
K39C	-0.546 ± 0.28
E2G	0.037 ± 0.11
I25T	-0.713 ± 0.33
T4V	-0.756 ± 0.45
S43K	0.134 ± 0.28
S21N	0.349 ± 0.16
V9M	-0.592 ± 0.36
K39N	-0.276 ± 0.27
Q13D	-0.644 ± 0.46
R48G	0.024 ± 0.32
V38A	-0.182 ± 0.083
Y42R	0.234 ± 0.062
A14F	-0.453 ± 0.33
R24V	-0.508 ± 0.18
F17M	-0.553 ± 0.28
K20N	-0.306 ± 0.27
S36A	-0.504 ± 0.2
W3F	-0.264 ± 0.12
T4D	-0.53 ± 0.38
F15W	-0.637 ± 0.34
T33P	0.275 ± 0.1
F22G	-0.739 ± 0.16
K8I	-0.388 ± 0.5

Variant	abundance fitness
M28P	-0.733 ± 0.31
K46L	-0.645 ± 0.13
V5I	-0.316 ± 0.18
L29K	-0.645 ± 0.44
H18T	-0.39 ± 0.32
Y42L	0.015 ± 0.042
F17P	-0.537 ± 0.46
A14C	-0.71 ± 0.29
V9Y	-0.581 ± 0.3
Q27L	-0.326 ± 0.14
F22Y	-0.424 ± 0.43
S16W	-0.568 ± 0.25
A14K	-0.393 ± 0.41
F17H	-0.207 ± 0.47
Q13E	-0.288 ± 0.2
W44F	0.414 ± 0.18
A35V	-0.545 ± 0.11
L10R	-0.213 ± 0.12
K8T	-0.542 ± 0.32
F11D	-0.873 ± 0.44
A35T	0.073 ± 0.1
K32C	-0.816 ± 0.085
H18I	0.283 ± 0.34
